Source: patent US20030113787A1 (Takeda / Millennium, published 2003)

How the values were obtained:
Bcl-10-CARD/AD = target: T1, Bcl-10-CARD/AD (mouse, UniProt Q04207 364-549; O95999 1-104); experiment: cell-based or functional assay
T1 sequence (looked up): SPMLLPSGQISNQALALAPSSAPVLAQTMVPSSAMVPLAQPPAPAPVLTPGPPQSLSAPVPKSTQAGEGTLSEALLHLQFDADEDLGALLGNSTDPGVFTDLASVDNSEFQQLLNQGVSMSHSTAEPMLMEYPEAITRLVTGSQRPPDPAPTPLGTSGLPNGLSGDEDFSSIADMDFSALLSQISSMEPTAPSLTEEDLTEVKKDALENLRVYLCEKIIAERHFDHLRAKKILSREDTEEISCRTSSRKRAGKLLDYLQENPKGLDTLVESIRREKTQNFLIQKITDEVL

Myc-CARD-11/CC [1] = target: T2, Myc-CARD-11/CC (human, UniProt Q9BXL7 129-449); experiment: co-localization by immunofluorescence in co-transfected cells
T2 construct: NOT the whole entry: only the coiled-coil region stood in the assay
T2 sequence: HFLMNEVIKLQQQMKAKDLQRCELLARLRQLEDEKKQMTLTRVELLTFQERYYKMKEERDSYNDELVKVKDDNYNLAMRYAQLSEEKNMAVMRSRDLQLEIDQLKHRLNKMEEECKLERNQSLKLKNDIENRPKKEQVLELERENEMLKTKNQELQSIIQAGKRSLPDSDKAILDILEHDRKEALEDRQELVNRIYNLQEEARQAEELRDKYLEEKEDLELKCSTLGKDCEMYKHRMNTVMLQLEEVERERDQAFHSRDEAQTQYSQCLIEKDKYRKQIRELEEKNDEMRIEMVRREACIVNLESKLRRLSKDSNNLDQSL

[2] = target: T3, Myc-tagged CARD-11 (full-length) (human, UniProt Q9BXL7 8-1154); experiment: as above
T3 construct: Used in the co-localization and Bcl-10 phosphorylation experiments; also called full-length CARD-11
T3 sequence: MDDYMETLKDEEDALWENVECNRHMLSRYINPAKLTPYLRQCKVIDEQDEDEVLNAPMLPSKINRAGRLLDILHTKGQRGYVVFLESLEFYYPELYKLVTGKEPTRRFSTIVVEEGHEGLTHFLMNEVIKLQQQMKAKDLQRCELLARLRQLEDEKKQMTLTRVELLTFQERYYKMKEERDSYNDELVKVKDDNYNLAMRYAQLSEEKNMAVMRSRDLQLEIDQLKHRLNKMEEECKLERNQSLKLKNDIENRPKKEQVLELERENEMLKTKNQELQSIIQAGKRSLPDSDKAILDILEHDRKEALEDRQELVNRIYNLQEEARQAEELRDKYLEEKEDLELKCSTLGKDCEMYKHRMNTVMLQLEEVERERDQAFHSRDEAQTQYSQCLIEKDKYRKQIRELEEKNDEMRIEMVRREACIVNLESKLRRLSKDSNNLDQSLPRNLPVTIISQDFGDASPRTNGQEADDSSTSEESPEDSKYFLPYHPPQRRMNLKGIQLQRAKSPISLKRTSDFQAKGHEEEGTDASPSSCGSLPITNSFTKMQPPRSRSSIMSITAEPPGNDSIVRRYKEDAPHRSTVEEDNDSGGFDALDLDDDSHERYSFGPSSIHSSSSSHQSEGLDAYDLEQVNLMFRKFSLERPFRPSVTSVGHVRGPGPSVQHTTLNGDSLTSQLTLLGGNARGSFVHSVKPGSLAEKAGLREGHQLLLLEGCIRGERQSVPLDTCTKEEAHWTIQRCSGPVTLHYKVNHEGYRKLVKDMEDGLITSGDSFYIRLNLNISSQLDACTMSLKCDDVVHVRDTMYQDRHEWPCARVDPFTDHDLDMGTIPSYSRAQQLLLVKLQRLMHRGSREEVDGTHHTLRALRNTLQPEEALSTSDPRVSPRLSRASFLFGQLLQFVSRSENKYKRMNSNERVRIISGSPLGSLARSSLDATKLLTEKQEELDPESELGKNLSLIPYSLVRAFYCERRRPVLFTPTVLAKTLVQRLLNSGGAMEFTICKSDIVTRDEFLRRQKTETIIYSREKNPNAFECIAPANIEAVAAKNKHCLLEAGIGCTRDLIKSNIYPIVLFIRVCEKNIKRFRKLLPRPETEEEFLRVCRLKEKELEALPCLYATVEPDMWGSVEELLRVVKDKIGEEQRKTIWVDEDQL

CARD-11/DCARD = target: T4, CARD-11/DCARD (human, UniProt Q9BXL7 134-1154); experiment: as above
T4 construct: also called CARD-11 truncation mutant lacking the N-terminal CARD
T4 sequence: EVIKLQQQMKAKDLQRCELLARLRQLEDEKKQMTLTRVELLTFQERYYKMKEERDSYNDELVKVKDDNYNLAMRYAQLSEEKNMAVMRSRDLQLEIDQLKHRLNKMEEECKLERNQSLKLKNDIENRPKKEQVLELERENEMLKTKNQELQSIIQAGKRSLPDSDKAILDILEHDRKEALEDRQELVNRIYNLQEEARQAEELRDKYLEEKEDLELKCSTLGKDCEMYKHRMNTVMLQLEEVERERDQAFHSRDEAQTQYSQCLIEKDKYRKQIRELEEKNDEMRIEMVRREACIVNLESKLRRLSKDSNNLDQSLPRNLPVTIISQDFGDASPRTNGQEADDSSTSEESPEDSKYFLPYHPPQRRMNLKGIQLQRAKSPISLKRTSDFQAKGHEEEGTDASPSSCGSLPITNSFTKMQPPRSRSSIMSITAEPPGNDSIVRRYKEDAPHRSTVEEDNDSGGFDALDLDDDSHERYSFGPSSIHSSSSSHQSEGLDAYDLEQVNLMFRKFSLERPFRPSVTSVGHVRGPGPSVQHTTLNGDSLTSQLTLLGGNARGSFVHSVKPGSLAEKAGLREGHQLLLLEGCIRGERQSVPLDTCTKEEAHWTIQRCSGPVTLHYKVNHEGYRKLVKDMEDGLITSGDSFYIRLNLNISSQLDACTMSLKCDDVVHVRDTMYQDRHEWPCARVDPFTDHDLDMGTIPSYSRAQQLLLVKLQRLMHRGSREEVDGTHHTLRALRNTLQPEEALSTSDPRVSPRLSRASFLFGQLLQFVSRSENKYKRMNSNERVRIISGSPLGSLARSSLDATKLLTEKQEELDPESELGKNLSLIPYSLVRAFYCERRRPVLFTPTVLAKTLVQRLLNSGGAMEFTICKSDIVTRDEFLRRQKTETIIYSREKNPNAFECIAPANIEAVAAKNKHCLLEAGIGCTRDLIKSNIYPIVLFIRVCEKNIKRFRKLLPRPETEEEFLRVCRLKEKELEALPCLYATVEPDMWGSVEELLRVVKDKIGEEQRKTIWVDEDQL

Myc-tagged CARD-9 = target: T5, Myc-tagged CARD-9 (human, UniProt Q9H257 1-536); experiment: co-localization by immunofluorescence in co-transfected Rat-1 cells
T5 construct: Expressed in 293T or Rat-1 cells; Species not restated; also called pCI-Card-9-myc
T5 sequence: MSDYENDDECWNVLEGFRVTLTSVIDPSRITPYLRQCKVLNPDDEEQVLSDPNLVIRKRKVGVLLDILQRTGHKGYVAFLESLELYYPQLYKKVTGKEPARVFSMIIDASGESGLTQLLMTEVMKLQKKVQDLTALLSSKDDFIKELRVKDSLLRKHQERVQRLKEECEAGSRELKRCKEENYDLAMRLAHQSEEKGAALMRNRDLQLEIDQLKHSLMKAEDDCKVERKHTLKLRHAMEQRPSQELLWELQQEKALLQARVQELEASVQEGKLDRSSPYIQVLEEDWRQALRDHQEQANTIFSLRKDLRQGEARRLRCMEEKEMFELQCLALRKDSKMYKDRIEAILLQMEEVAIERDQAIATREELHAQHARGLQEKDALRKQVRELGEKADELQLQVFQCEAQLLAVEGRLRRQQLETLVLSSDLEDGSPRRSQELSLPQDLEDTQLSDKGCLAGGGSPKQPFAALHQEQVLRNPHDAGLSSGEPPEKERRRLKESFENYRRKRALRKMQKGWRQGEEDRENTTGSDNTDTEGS
Text: To determine the cellular localization of CARD-9, and to confirm that CARD-9 associated intracellularly with Bcl-10 when the two proteins were co-expressed, Rat-1 cells were transfected with a Myc-tagged vector encoding full-length CARD-9, and with an HA-tagged vector encoding full-length Bcl-10. The expressed proteins were detected using a mixture of a monoclonal anti-Myc antibody and a polyclonal rabbit anti-HA antibody. Briefly, Rat-1 cells were transfected in glass chamber slides (BioCoat, Becton-Dickinson Labware) with pCI-Bcl-10-HA or pCI-Card-9-myc, alone or together, using FuGENE-6 (Roche Molecular Biochemicals) for 20 hours. Cells were fixed in 4% paraformaldehyde, permeabilized and blocked in buffer containing 0.4% Trition X-100, and sequentially incubated with primary and secondary antibodies. Antibodies were rabbit anti-HA polyclonal Y-11 (Santa Cruz Biotechnology), mouse anti-myc monoclonal 9E10 (Oncogene Research Products), Alexa-488 Goat anti-mouse IgG (Molecular Probes) and Texas-Red Goat anti-rabbit IgG (Jackson Immunoresearch Laboratories). No cross-reactivity was observed between any of the antibodies. Nuclei were stained with Hoechst 33258. […]

Myc-CARD-11/CC [3] = target: T2, Myc-CARD-11/CC; experiment: co-immunoprecipitation from transfected 293T cells (anti-Flag IP, anti-Myc blot)
Procedure: The interaction between CARD-11 and Bcl-10 was next examined in cells by overexpressing CARD-11 is cells and performing co-immunoprecipitation assays. These assays were performed as follows. Plasmids expressing CARD-11 with C-terminal Myc epitopes were constructed using pCMV-Tag 5A (Stratagene Corp., La Jolla, Calif.). Constructs encoding epitope-tagged Bcl-10 were described previously (Srinivasula et al., […] J. Biol. Chem. 274:17946). 293T cells transfected with the plasmids were lysed in 50 mM Tris, pH 8.0, 120 mM NaCl, 1 mM EDTA, 0.5% Nonidet P-40 buffer and incubated with anti-Flag-M2 monoclonal antibody (Sigma Co.). The immune complexes were precipitated with protein G-Sepharose (Amersham Pharmacia Bio), washed extensively, and then subjected to SDS-polyacrylamide gel electrophoresis and immunoblotted with polyclonal anti-Myc antibodies (Santa Cruz Biotechnology, Inc.).

B1: CARD10-CARD/BD (other, yeast)
chain: MKLLSSIEQACDICRLKKLKCSKEKPKCAKCLKNNWECRYSPKTKRSPLTRAHLTEVESRLERLEQLFLLIFPREDLDMILKMDSLQDIKALLTGLFVQDNVNKDAVTDRLASVETDMPLTLRQHRISATSSSEESSNKGQRQLTVSMPGRAEAGEAEEEAGAGSGSEAEEDALWERIEGVRHRLARALNPAKLTPYLRQCRVIDEQDEEEVLSTYRFPCRVNRTGRLMDILRCRGKRGYEAFLEALEFYYPEHFTLLTGQEPAQRCSMILDEEGPEGLTQFLMT
B1 was tested, and the “relative luciferase activity (mammalian two-hybrid reporter)” value (Bcl-10-CARD/AD) was 340 fold.

B2: HA-tagged Bcl-10 (other, UniProt O95999 1-233, looked up, not shown: small tags and cut ends)
chain: MEPTAPSLTEEDLTEVKKDALENLRVYLCEKIIAERHFDHLRAKKILSREDTEEISCRTSSRKRAGKLLDYLQENPKGLDTLVESIRREKTQNFLIQKITDEVLKLRNIKLEHLKGLKCSSCEPFPDGATNNLSRSNSDESNFSEKLRASTVMYHPEGESSTTPFFSTNSSLNLPVLEVGRTENTIFSSTTLPRPGDPGAPPLPPDLQLEEEGTCANSSEMFLPLRSRTVSRQ
notes: Expressed in Rat-1 or other transfected cells; also called pCI-Bcl-10-HA; HA-Bcl-10
B2: no binding (Myc-CARD-11/CC [1]); binds [2]; no binding (CARD-11/DCARD). B2: binds (Myc-tagged CARD-9).

B3: Flag-tagged Bcl-10 (other, UniProt O95999 1-233, looked up, not shown: small tags and cut ends)
chain: MEPTAPSLTEEDLTEVKKDALENLRVYLCEKIIAERHFDHLRAKKILSREDTEEISCRTSSRKRAGKLLDYLQENPKGLDTLVESIRREKTQNFLIQKITDEVLKLRNIKLEHLKGLKCSSCEPFPDGATNNLSRSNSDESNFSEKLRASTVMYHPEGESSTTPFFSTNSSLNLPVLEVGRTENTIFSSTTLPRPGDPGAPPLPPDLQLEEEGTCANSSEMFLPLRSRTVSRQ
notes: Expressed in 293T cells; also called Flag-Bcl-10
B3: no binding (Myc-CARD-11/CC [3]).
